The text below walks through data of the RNAGym collection of RNA variant scans (doi:10.7554/elife.80360).

B1: CPEB3 Ribozyme (parent)
chain: GGGGGCCACAGCAGAAGCGUUCACGUCGCGGCCCCUGUCAGAUUCUGGUGAAUCUGCGAAUUCUGCUGU

Variants of B1 are the subject of the data set. The experiment in a line: self-cleavage, relative activity (ratio to wild type); higher = more cleavage; co-transcriptional.
Regarding C34A U38A, the self-cleavage worked out at 0.846.

As to C34A U38C, the self-cleavage was found to be 0.492.

Regarding C32G A60U, the self-cleavage worked out at 0.19.

On to C32G A60C, for which the self-cleavage was 0.194.

Turning to C34A G56A, the self-cleavage came to 0.562.

On to C32A G37A, for which the self-cleavage is 0.263.

In the case of C32A G37U, the self-cleavage is 0.18.

Consider C34A C54A, for which the self-cleavage was 0.408.

In the case of C34A C54G, the self-cleavage came out at 0.38.

With C33G A52U, the self-cleavage was 0.444.

Consider G31C U38A, for which the self-cleavage was found to be 0.237.

In the case of C32A C57A, the self-cleavage came to 0.245.

Take C33G U44A: the self-cleavage stood at 0.29.

For C33A G50U, the self-cleavage is 0.893.

Regarding G31U U67C, the self-cleavage amounted to 0.939.

On to G31U U53C, for which the self-cleavage is 0.354.

G31C U53G: the self-cleavage was 0.139.

For the variant G31C U53C, the self-cleavage was determined as 0.237.

For C34A A51C, the self-cleavage is 0.615.

For C34A A51U, the self-cleavage came out at 0.521.

Take G31C U44C: the self-cleavage is 0.27.

On to G31C U67C, for which the self-cleavage was 0.358.

As for C33U U62G, the self-cleavage amounted to 0.845.

For C33U U62C, the self-cleavage is 0.847.

As for C33U U62A, the self-cleavage was determined as 0.956.

Take C34A C35A: the self-cleavage was found to be 0.275.

C33A G65A: the self-cleavage was found to be 0.786.

For the variant C33A G65U, the self-cleavage amounted to 0.451.

For the variant C32G A59C, the self-cleavage was determined as 0.243.

With C33A U62G, the self-cleavage was found to be 0.559.

Take C33A U62C: the self-cleavage amounted to 0.584.

On to C33U C35A, for which the self-cleavage was 0.233.

Take C32A A52G: the self-cleavage was found to be 0.431.

Turning to C32G A52G, the self-cleavage came to 0.364.

C32G A52U: the self-cleavage came to 0.48.

Consider C33U G37U, for which the self-cleavage was 0.245.

As to G31U U49G, the self-cleavage was 0.421.

As to C32A A60G, the self-cleavage amounted to 0.454.

Regarding C33G A40G, the self-cleavage stood at 0.648.

With G31U G68C, the self-cleavage amounted to 0.958.

Turning to G31U G68U, the self-cleavage amounted to 0.974.

Consider G31U A52C, for which the self-cleavage is 0.556.

As for C34A A52U, the self-cleavage was 0.664.

Take C32A A59U: the self-cleavage turned out to be 0.445.

As for C33A U61G, the self-cleavage came out at 0.5.

Regarding C33G A42C, the self-cleavage came to 0.314.

For the variant C33G A42G, the self-cleavage is 0.522.

As to C32A G41C, the self-cleavage came to 0.322.

Turning to C32G G50A, the self-cleavage came to 0.554.

Turning to C33U U44A, the self-cleavage was 1.01.

Take C33U U44C: the self-cleavage is 0.938.

In the case of C32U U55C, the self-cleavage came out at 0.837.

With C33G U46A, the self-cleavage is 0.438.

Regarding C33G U43C, the self-cleavage stood at 0.391.

On to C33G U43A, for which the self-cleavage was determined as 0.299.

Regarding C33A C57U, the self-cleavage stood at 0.343.

For the variant G31U U36C, the self-cleavage came to 0.516.

Take C32G C57A: the self-cleavage is 0.252.

C32G C57U: the self-cleavage is 0.234.

Take C34A A42G: the self-cleavage worked out at 0.765.

Regarding C34A A42U, the self-cleavage worked out at 0.491.

Turning to C33A G41C, the self-cleavage was 0.343.

As to C32A A51U, the self-cleavage worked out at 0.566.

Consider C32A A51C, for which the self-cleavage turned out to be 0.391.

Turning to C33U A60C, the self-cleavage worked out at 0.319.

Turning to C33A A59G, the self-cleavage amounted to 0.738.

Regarding C33A A59U, the self-cleavage was determined as 0.475.

As for C32U A60U, the self-cleavage amounted to 0.478.

Turning to C32U A60C, the self-cleavage was 0.363.

As for C33G C34U, the self-cleavage amounted to 0.671.

C33G C34G: the self-cleavage is 0.217.

Consider C33G C34A, for which the self-cleavage was 0.253.

Turning to C33A C34U, the self-cleavage is 0.489.

For the variant C33G C35U, the self-cleavage turned out to be 0.184.

As for C32U A52C, the self-cleavage is 0.913.

With C34A C66A, the self-cleavage turned out to be 0.634.

With C33A G48A, the self-cleavage amounted to 0.95.

On to G31U C57G, for which the self-cleavage worked out at 0.236.

C32A G58U: the self-cleavage came to 0.914.

Take G31U U61C: the self-cleavage is 0.258.

For C33A G56A, the self-cleavage came out at 0.758.

Take C32A U69A: the self-cleavage is 0.965.

As to C32A U69G, the self-cleavage is 0.983.

In the case of C33G A51C, the self-cleavage was found to be 0.335.

Take C33A U38C: the self-cleavage came out at 0.72.

With C33A U38A, the self-cleavage was found to be 0.804.

On to C32U U62A, for which the self-cleavage was determined as 0.979.

C32U U62C: the self-cleavage amounted to 0.955.

Consider G31C U62A, for which the self-cleavage was 0.151.

Consider G31C U62C, for which the self-cleavage was found to be 0.258.

For the variant C32G U46C, the self-cleavage came out at 0.594.

As for C32G G58U, the self-cleavage was 0.622.

For C32G G58C, the self-cleavage was 0.478.

Consider C32G G41U, for which the self-cleavage was 0.328.

Regarding C33G U62C, the self-cleavage amounted to 0.358.

For G31U G41C, the self-cleavage came out at 0.283.

As for G31U G41A, the self-cleavage worked out at 0.348.

As to C33U C54G, the self-cleavage is 0.828.

C33U C54A: the self-cleavage was determined as 0.868.

For C33A G68C, the self-cleavage stood at 0.967.

For the variant C33G A59G, the self-cleavage is 0.516.

Consider C33G A59U, for which the self-cleavage came to 0.362.

For C32U C34U, the self-cleavage turned out to be 0.924.

Take C32U C34G: the self-cleavage is 0.413.

G31U C35U: the self-cleavage was 0.363.

For the variant G31U C35A, the self-cleavage was determined as 0.26.

As for G31U A59G, the self-cleavage is 0.514.

As for G31U A59C, the self-cleavage is 0.356.

As for C32G C39G, the self-cleavage came out at 0.389.

In the case of C32G C39A, the self-cleavage came out at 0.282.

On to C33U G50U, for which the self-cleavage worked out at 1.

With C32G G68U, the self-cleavage worked out at 0.815.

In the case of C33A A40C, the self-cleavage was 0.339.

Turning to C33A A40U, the self-cleavage was 0.375.

Take C32U U64C: the self-cleavage was 0.899.

Regarding C32U U64A, the self-cleavage is 0.992.

As for G31U G50A, the self-cleavage turned out to be 0.758.

For C32G G65U, the self-cleavage was 0.267.

Consider C32A G47U, for which the self-cleavage amounted to 0.897.

Consider C33U G41A, for which the self-cleavage stood at 0.827.

For C33A A42G, the self-cleavage turned out to be 0.685.

As for C33A A42C, the self-cleavage was 0.405.

On to C33A A42U, for which the self-cleavage was found to be 0.499.

As to C33A C45A, the self-cleavage worked out at 0.523.

As for C33A C45G, the self-cleavage was found to be 0.665.

For the variant C32U U61A, the self-cleavage came out at 0.893.

For C32A C34G, the self-cleavage was 0.228.

With C34A A40C, the self-cleavage was 0.291.

As to C34A G37C, the self-cleavage amounted to 0.262.

Regarding C32A U49G, the self-cleavage was 0.626.

Consider C33U U43C, for which the self-cleavage turned out to be 0.939.

As to C33U U36A, the self-cleavage came to 0.218.

Turning to G31C G50A, the self-cleavage is 0.214.

Consider C32U C35U, for which the self-cleavage was found to be 0.77.

Take C32U C35A: the self-cleavage was determined as 0.25.

For the variant C33A U46A, the self-cleavage was 0.617.

As to C33A U46G, the self-cleavage worked out at 0.737.

Turning to C33A U46C, the self-cleavage came out at 0.847.

For C32U U69A, the self-cleavage worked out at 1.03.

For C32G U69G, the self-cleavage is 0.775.

For the variant C32G U69A, the self-cleavage is 0.709.

C32U U44G: the self-cleavage is 0.941.

Turning to C32U U44C, the self-cleavage came out at 0.938.

Consider C34A A60C, for which the self-cleavage was 0.313.

Consider C34A A60U, for which the self-cleavage was found to be 0.292.

On to C34A A60G, for which the self-cleavage was found to be 0.44.

In the case of C32A U44C, the self-cleavage was found to be 0.482.

Consider C32G C35U, for which the self-cleavage came to 0.377.

For the variant C33A U43A, the self-cleavage turned out to be 0.311.

Take C34A G58C: the self-cleavage amounted to 0.556.

For C34A G58U, the self-cleavage amounted to 0.881.

As to C32U A40C, the self-cleavage was 0.734.

Take C32U A40G: the self-cleavage turned out to be 0.95.

For C32U A40U, the self-cleavage worked out at 0.871.

On to C32A U62G, for which the self-cleavage was determined as 0.324.

On to C32A U62A, for which the self-cleavage was determined as 0.281.

Take C33U U55C: the self-cleavage stood at 0.685.

As for C33U U55G, the self-cleavage came out at 0.8.

Turning to C32U G50C, the self-cleavage amounted to 0.991.

With C32U C57A, the self-cleavage was 0.339.

Regarding C32G U53G, the self-cleavage was determined as 0.382.

Turning to C32G U53C, the self-cleavage came to 0.217.

With C32U U49G, the self-cleavage was determined as 1.01.

Turning to C32U U49C, the self-cleavage was found to be 1.

Regarding C33G G56A, the self-cleavage turned out to be 0.496.

With C33G G56U, the self-cleavage stood at 0.458.

In the case of C32G U44C, the self-cleavage is 0.452.
